Results on two molecules are retold here after paper PMC6868016.

The target of assay [1] is ACP-GluA1 (GluA1 tagged with the acyl carrier protein at its N-terminus) (mouse). Nature of the assay: single-molecule fluorescence tracking (TIRF), colocalization durations, simultaneous two colours; living HEK293 cells, plasma membrane, TARP2-mGFP with ATTO594-labelled ACP-GluA1 or ACP-GluA2 monomers and homodimers; lifetimes corrected for photobleaching.
The target of assay [2] is ACP-GluA2 (GluA2 tagged with the acyl carrier protein at its N-terminus), P23819. The description is as above. The following applies: remark: other sources report otherwise.
ACP-GluA2 (GluA2 tagged with the acyl carrier protein at its N-terminus), P23819, sequence (P23819 25-883): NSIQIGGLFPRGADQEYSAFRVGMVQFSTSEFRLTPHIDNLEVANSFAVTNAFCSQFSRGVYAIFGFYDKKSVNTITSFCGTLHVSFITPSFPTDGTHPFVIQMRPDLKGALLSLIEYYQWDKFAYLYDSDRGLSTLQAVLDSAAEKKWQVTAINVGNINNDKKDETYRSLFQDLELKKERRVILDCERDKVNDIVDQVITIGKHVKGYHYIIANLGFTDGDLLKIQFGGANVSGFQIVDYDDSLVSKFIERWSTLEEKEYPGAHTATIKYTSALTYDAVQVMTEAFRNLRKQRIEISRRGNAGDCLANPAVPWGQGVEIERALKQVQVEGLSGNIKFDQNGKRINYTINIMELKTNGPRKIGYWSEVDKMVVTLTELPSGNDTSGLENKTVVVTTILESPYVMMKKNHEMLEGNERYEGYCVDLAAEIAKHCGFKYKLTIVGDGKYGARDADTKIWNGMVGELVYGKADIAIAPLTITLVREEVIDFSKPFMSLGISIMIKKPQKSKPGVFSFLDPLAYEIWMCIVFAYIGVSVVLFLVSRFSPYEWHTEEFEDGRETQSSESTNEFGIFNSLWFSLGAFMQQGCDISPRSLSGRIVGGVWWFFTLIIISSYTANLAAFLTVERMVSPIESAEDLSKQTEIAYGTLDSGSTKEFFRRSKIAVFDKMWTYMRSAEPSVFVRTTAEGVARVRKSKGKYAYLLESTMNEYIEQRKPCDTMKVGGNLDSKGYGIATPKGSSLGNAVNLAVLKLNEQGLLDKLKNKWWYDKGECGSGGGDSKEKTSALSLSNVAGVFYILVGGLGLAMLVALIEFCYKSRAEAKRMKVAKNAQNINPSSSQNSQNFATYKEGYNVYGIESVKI

ACP-GluA1 (GluA1 tagged with the acyl carrier protein at its N-terminus) (mouse), sequence (P23818 19-907): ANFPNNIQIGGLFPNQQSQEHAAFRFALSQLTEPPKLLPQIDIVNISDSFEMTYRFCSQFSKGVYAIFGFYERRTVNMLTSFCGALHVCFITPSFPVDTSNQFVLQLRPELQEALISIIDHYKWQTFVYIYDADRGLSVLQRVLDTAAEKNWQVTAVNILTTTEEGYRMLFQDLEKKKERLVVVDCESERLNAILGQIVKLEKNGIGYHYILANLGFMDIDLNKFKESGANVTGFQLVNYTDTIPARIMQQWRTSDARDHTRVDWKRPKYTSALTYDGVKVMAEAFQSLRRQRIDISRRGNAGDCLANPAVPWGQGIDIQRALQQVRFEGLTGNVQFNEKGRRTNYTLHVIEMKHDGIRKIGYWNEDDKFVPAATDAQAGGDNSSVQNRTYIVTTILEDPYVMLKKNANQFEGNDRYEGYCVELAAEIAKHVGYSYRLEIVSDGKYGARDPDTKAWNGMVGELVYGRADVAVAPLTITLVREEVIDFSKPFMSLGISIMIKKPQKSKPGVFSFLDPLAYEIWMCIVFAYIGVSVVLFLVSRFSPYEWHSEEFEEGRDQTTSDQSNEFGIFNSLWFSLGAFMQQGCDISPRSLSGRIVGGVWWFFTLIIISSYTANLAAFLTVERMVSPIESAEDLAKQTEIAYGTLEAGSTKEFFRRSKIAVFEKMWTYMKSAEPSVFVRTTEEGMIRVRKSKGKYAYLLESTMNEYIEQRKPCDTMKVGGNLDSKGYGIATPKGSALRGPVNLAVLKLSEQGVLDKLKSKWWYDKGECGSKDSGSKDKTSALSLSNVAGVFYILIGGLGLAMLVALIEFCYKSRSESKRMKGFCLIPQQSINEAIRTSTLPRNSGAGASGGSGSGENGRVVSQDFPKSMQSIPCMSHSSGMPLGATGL

B1: TARP2-mGFP (transmembrane AMPA receptor regulatory protein 2 with mGFP fused to its C-terminus) (natural protein)
chain: MGLFDRGVQMLLTTVGAFAAFSLMTIAVGTDYWLYSRGVCKTKSVSENETSKKNEEVMTHSGLWRTCCLEGNFKGLCKQIDHFPEDADYEADTAEYFLRAVRASSIFPILSVILLFMGGLCIAASEFYKTRHNIILSAGIFFVSAGLSNIIGIIVYISANAGDPSKSDSKKNSYSYGWSFYFGALSFIIAEMVGVLAVHMFIDRHKQLRATARATDYLQASAITRIPSYRYRYQRRSRSSSRSTEPSHSRDASPVGVKGFNTLPSTEISMYTLSRDPLKAATTPTATYNSDRDNSFLQVHNCIQKDSKDSLHANTANRRTTPV
For the molecule B1, the lifetime of binding (to GluA1 monomers and to GluA1 homodimers) in assay [1] came out at 200 ms.

B2: TARP2-mGFP (transmembrane AMPA receptor regulatory protein 2 with mGFP fused to its C-terminus), O88602 1-323 (natural protein)
chain: MGLFDRGVQMLLTTVGAFAAFSLMTIAVGTDYWLYSRGVCKTKSVSENETSKKNEEVMTHSGLWRTCCLEGNFKGLCKQIDHFPEDADYEADTAEYFLRAVRASSIFPILSVILLFMGGLCIAASEFYKTRHNIILSAGIFFVSAGLSNIIGIIVYISANAGDPSKSDSKKNSYSYGWSFYFGALSFIIAEMVGVLAVHMFIDRHKQLRATARATDYLQASAITRIPSYRYRYQRRSRSSSRSTEPSHSRDASPVGVKGFNTLPSTEISMYTLSRDPLKAATTPTATYNSDRDNSFLQVHNCIQKDSKDSLHANTANRRTTPV
modifications: here or on the partner: ATTO594 on the ACP tag (ATTO594-Coenzyme A with ACP-synthase)
Turning to B2, the lifetime of binding (to GluA2 monomers and to GluA2 homodimers) in assay [2] stood at 200 ms.
